B1: Fission-yeast Pds5 (natural protein, fission yeast, UniProt Q9HFF5 1-1205, looked up)
chain: MIKLQFQRNIVPTHDNPLTTSEILKRLRDLLGELTSLSQDTIDRDSVLPVARSLVNNNLLHHKDKGIRSYTLCCIVELLRLCAPDAPFTLSQLEDIFQVILKILSGLMNQESTYYPQIYEILESLSNVKSAVLIVDLPNAEEFLVNIFRLFFDLARKGTTKNVEFYMLDIINQLINEINTIPAAALNILFAQLISGKGVRQTIGSSDSTNHGPAFQLARNIFHDSADRLQRYVCQYFSDIIFDSRDSLSDSMTTPEFIFSHNLVLQLWKYAPTTLLNIIPQFENELQAEQTSVRLVAIETVGLMLQDNAIWSDYPRVWSAFCGRLNDKSVACRIKCIEVASNALQNSLATSEIIENVVQMLQSKLADTDEKVRVATLKTIEQLTFETFKMQFSVQALKLMGDRLRDRKLNVRLQAIRTLSQIYNRAYQDLIDGVEYSIQMFSWIPSSLLEVFYVNDETTNAAVEICMAELVLQYLSSDTQTRLNRLFLSIKYFSEKAMRVFILLLQRQVKYSELLNYYIECCKNYNGGVMDNDEESITNKLKKVIDIISSKSSNPTLTEATFRKFAELNDRQSYKMLLQTFSIKSEYQVVLKSIKYLFKRVSETLSTASLECFRIFVYRSALFAFNKSNVHEIIQLLNEPVKYHNFLKPSEALLQHLPLIHPNIYGEVVIEVENIIVSSGIESDPKVIKALSQFSKRKKNFSIQTTTAEILRKLCLHGTQEQAKQAATIIAITETKEFKLDMITNIVENLEYNGGLPVRLMTLGQLFLYTLEEVEKVADQVTEFLVKKVIQRFPEKYDDTHNDEEWCTYEKLDNLTMCKVLAIRVLVNRLRAAAGGTEALNIGAPIIKLLKVLLMADGELSPFKNTPKISRAYLRLTASKYFLKLCSIPFYAEHIDFSSYVQISLLCQDENFDVRNLFLTKLQKQLQLKKLPISYYPLLFLTAVDPEEEIKTKASIWIRSQVAFFQKTHDFTMEYVATYLIHLLSHHPDISSIESENSLDFIAYIRFYVDTVVNSENVPIVFHLMQRIKQSYDVIEDGNNYIYVLSDMAQKILQVKSQNFGWSLTTYPKQIKLPYEILRPIPSIDEKKRIFNKIFITPKMESQIEHAIRTPVSSFAKQTTNKHANLKQKKTHSSKSDKKSSRRRKNEKRRKLNEQNPNIRNVPERSSSRFQGIRINYSEAPSSSEEISEEEEEISEEDFDEIEDL
notes: Pds5, cohesin subunit of fission yeast; Protein A was removed by protease; source: overexpressed in budding yeast, purified (IgG-agarose, Capto Q, gel filtration)

Assays:
Settings in all cases: both partners purified
Mis4-Ssl3 cohesin loader = target: T1, Mis4-Ssl3 cohesin loader (fission yeast, UniProt Q09725 1-1587; O94459 1-559); experiment: co-IP; Psc3 immunoprecipitated; co-precipitation of the Psm1-Psm3 hinge and of the cohesin loader analysed
T1 construct: Mis4, subunit of the fission-yeast cohesin loader; Ssl3, subunit of the fission-yeast cohesin loader; also called MS; source: prepared and purified as described (Murayama and Uhlmann, 2014)

[1] = target: T2, Fission-yeast cohesin tetramer (Psm1, Psm3, Rad21 and Psc3) (fission yeast, UniProt O94383 1-1228; O42649 1-1194; P30776 1-628; O13816 1-962); experiment: co-IP; recombinant cohesin tetramer or trimer immunoprecipitated via Rad21-HA with Pds5 and Wapl both added; bound proteins by western blotting
T2 construct: Psm1 (Smc1), SMC subunit of fission-yeast cohesin; Psm3 (Smc3), SMC subunit of fission-yeast cohesin; Rad21, kleisin subunit of fission-yeast cohesin; Psc3 (Scc3), subunit of fission-yeast cohesin; also called "4"; source: recombinant, purified as described (Murayama and Uhlmann, 2014); not shown: Pk, C-terminal, kept; copies: + + +
T2 sequence (O94383 whole entry, chain 1 of 3): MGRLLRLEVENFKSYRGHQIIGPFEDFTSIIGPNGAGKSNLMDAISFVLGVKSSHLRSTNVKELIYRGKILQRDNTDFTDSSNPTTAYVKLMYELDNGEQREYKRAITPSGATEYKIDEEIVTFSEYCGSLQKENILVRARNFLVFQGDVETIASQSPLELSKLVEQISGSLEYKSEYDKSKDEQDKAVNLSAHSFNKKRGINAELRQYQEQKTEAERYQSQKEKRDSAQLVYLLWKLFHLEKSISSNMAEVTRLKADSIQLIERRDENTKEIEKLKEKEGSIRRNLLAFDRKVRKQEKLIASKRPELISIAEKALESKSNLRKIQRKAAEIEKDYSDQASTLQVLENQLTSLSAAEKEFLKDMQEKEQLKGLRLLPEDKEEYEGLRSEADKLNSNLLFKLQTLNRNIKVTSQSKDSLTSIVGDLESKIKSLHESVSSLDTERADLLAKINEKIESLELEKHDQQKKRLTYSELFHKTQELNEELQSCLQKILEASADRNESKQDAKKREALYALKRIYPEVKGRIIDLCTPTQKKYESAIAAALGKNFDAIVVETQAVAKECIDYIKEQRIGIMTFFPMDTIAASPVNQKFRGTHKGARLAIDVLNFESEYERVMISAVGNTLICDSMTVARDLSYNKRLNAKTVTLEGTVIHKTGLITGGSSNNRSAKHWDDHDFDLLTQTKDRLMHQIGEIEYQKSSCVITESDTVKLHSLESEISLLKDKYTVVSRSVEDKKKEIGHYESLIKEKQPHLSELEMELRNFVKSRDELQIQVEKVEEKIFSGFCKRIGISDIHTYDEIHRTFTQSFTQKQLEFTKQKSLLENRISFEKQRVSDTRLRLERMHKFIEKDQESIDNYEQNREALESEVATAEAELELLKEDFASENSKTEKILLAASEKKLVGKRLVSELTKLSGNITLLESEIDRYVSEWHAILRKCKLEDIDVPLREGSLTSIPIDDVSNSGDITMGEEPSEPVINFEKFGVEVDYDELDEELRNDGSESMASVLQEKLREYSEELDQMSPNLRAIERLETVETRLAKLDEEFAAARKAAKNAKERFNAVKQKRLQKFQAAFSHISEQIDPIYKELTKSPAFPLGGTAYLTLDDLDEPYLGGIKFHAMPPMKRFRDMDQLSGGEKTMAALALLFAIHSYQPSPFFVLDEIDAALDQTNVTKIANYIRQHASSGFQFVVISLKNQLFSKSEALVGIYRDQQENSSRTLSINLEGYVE
T2 sequence (O42649 whole entry, chain 2 of 3): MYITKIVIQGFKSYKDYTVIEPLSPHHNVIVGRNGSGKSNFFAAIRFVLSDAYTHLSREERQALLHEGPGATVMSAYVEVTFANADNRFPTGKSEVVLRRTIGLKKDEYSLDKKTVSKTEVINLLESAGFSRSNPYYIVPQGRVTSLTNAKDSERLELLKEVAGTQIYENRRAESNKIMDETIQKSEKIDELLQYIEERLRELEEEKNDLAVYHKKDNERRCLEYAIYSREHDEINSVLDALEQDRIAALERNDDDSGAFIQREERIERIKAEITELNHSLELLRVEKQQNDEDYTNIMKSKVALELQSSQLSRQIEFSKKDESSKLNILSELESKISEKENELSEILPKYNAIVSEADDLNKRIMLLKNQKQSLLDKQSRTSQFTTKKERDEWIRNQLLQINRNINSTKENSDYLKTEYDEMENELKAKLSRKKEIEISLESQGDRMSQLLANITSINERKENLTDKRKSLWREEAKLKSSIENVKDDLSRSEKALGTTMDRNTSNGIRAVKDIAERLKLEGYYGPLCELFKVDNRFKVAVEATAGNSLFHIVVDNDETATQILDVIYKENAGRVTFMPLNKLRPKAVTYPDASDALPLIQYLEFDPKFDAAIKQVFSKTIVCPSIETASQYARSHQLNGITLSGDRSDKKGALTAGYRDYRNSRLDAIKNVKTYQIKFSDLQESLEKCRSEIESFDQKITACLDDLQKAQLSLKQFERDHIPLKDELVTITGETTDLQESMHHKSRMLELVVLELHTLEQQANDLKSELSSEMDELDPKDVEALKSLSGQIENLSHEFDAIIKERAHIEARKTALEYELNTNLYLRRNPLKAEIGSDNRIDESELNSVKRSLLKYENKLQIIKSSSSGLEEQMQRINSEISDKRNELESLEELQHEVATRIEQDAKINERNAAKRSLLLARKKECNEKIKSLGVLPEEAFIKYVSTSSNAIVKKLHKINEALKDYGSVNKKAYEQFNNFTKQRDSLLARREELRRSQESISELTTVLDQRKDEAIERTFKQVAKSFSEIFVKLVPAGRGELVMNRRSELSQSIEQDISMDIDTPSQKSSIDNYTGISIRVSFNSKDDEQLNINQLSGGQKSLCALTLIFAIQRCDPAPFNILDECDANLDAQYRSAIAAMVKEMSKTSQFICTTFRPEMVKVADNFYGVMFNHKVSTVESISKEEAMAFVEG
T2 sequence (P30776 whole entry, chain 3 of 3): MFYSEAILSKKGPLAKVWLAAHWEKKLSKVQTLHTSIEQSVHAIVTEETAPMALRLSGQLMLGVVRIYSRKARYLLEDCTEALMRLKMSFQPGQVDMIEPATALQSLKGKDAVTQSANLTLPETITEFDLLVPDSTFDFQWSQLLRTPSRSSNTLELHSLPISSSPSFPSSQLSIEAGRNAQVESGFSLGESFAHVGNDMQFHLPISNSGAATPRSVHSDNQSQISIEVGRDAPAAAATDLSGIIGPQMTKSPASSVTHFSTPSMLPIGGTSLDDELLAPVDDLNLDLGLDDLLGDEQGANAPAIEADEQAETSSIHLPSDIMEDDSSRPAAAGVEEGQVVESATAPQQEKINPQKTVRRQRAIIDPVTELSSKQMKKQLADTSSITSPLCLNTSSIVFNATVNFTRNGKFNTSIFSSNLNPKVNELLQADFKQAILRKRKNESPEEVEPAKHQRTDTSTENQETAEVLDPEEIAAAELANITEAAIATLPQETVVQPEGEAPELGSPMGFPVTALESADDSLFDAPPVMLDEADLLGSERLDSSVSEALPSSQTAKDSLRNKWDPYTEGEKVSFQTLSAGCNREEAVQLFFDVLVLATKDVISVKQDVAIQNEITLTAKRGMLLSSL

[2] = target: T3, Fission-yeast cohesin trimer (Psm1, Psm3 and Rad21) (fission yeast, UniProt O94383 1-1228; O42649 1-1194; P30776 1-628); experiment: as above
T3 construct: Psm1 (Smc1), SMC subunit of fission-yeast cohesin; Psm3 (Smc3), SMC subunit of fission-yeast cohesin; Rad21, kleisin subunit of fission-yeast cohesin; Lacks Psc3; source: recombinant, purified (Murayama and Uhlmann, 2014); copies: + +
T3 sequence (O94383 whole entry, chain 1 of 3): as the sequence (O94383 whole entry, chain 1 of 3) above
T3 sequence (O42649 whole entry, chain 2 of 3): as the sequence (O42649 whole entry, chain 2 of 3) above
T3 sequence (P30776 whole entry, chain 3 of 3): as the sequence (P30776 whole entry, chain 3 of 3) above

Fission-yeast Pds5 = target: B1; experiment: SEC; purified Pds5 and Wapl mixed in equimolar amounts and analysed by gel filtration; fractions by SDS-PAGE and silver staining

binding result (Mis4-Ssl3 cohesin loader)	binding result [1]	binding result [2]	binding result (Fission-yeast Pds5)	Binder
binds				Fission-yeast Psc3 (natural protein, fission yeast, UniProt O13816 1-962, looked up, Psc3 (Scc3), subunit of fission-yeast cohesin, as a separate protein; source: prepared and purified as described (Murayama and Uhlmann, 2014)) MSESVTTGSDDDGGDRESSPVMLSQSFDPMSSSSNSSSEENSDDDYEKTISSKKRHPRPNSKGVNVKRSRRNAIVEEDPQEEIFNNLFAFLLDQKVDTMDIAVSWFADYAKDNQSALANLINFILKCCGCNRAINVFDVQDQDSASATLSQIQLSVERTSTRDYPLNSKNLKFRNFRKRLTGLLSNFVSQLSIRNYLYNSTVFEDIMSWVVAMSSSTMRPIRHTATVFCLNIMTFLCEKSKELLNEHAIATKQLEKEEKRSRVNRNRINELNNSLGEIVKQQDTLTTYLNDYFDSVFVHRYRDVEPKIRVDCLQELGVWINTVPSIFFSGSYLRYLGWMLSDINTTVRLTVVKVLRKFFETDSFIGGLRHFSSRFKERILEMSCVDADIGVRVASIRLCNAMRTCGFLENSEILKVLKLILDINPRVQREAVLFLCKVVDESVNEKIDLWGEEDYILKAFSQTSLTTFSVHWIKFSQMCKLLEEVRLSYQSSFDYDTLLRIFQKNGNFITPITQALLNACEIDSIYQSWEDISNFVLFDNYTSTLKDPIDSILSFCKLNDFQESILLQLLSASIQTVCNNNFITPKTVHNKQAAETTNDQNKDKDLLYLNLLPYINSITERNSASPTLLHDSLRLLFSMDLTEMTDPQLSRHFELLINNLKKFFLTNNDLQIIQGCTILFLRLDSIPALKEDLKLLVTDICDQTVTEFLKNFGSFNIQDAVITKDEFVIFEACLTRIEGCTSLKDFSDYPEFDIIYERLVSLLSRVPNSYEDTLKFSAINTLQSLLFWFFLRKDNPADEEKKKDDETKVFNCLINIMNNDSSKILQLQAARTFLETVIMKEGVKASHYNDDNRVSEEHNFLKPQFLDALLKILEGWLYTYAKVGQFPFKRLTQASSPHTQISLDKNPLNRRLLEHVCCDLTSKLLIVVSLSNTITPEFSQQFCELRGHYGPKLSAIVDEFLN
	binds	binds	binds	Fission-yeast Wapl (natural protein, fission yeast, UniProt O94364 1-602, looked up, Wapl, cohesin subunit of fission yeast; GST was removed by protease; source: E. coli, purified (glutathione sepharose, heparin chromatography)) MKRGKCKEKDNGLKRISSESEVWNFLDVTVSELNKQKRSPGQTVSKRLHKKQRVVSNPDLSLPSSPVKQILRNGLQNSKYGSHKTGLERSASCSSIDASANHSSTTYREQRSYLMEEGLDTQPIVPREVSSGRELDSTNHTIGTERAFLIEEDVSEDDEIQMKSIHELRFAGEQQRIVDEIEYLVDGVTFSGNSSASRYLSLIGIAEKMFDNSFRLCLKSIRDVFLRIFEEIDPKDTLHTFLQIYIFATMANEMDCMSSLLDAYSNNVKLLLQTAITLEPQVPVSILAKSLPKSVKGAVQEFVIKAELTFSFSNESLASSDSISLAAIALMKTSSGVFAESELFTELINLLIEKSYPILKENDGSNNFLLHALCSSLEKFTDFQGSEKIQKVSQILSSKLQILIDEHNETNSPKIDDTVVHACSEKLLRTLIQTVNSNSDHALAVSKSEVPLFAYKILQKFSNFSSDDETTRELIILILGLLLGLVEESHEFIQTITHVEVSFGASALDVLISFYQKNESIVEISGYVVMILSHCFLNDPKAFAQLKPLISQFYESLHKFKNFHLKLKEELMMMGSNGLAIVSIIDELHKSLQDYLRSDLVK
	binds	binds		B1

From article PMC4701713, “DNA Entry into and Exit out of the Cohesin Ring by an Interlocking Gate Mechanism” (Cell, 2015)
